This assay has as its target T1, 6xHis-14-3-3ω (Arabidopsis, UniProt Q01525 1-259).
T1 construct: End of the His tag read from the printed name 6xHis-14-3-3ω; Vector map in Appendix 1B; construct as in Chen et al. (2018); also called recombinant 6xHis-14-3-3ω; source: E. coli BL21, purified (Ni-NTA agarose); not shown: 6xHis, N-terminal, kept
T1 sequence (looked up): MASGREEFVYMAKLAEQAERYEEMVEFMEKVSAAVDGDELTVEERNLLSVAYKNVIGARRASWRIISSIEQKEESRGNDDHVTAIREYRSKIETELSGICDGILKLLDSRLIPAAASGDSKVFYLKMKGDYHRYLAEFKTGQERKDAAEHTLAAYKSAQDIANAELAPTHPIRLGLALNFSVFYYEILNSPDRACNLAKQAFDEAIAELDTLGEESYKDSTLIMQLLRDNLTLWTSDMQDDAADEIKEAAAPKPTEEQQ
In words: pull-down; 6xHis-14-3-3ω and GST-fused GLR3.6 peptides (50 μg each) mixed with Ni-NTA agarose, 4°C, 2 h; western blot with α-His and α-GST. The conditions noted are these: both partners purified. On the technique in general: A western blot detects proteins with antibodies after separation by electrophoresis.

B1: GST-GLR3.6 (GST-fused peptide fragment of GLR3.6, amino acids 854-865) (peptide)
chain: EGSIRRRSSPSA
notes: cloned by AscI and NotI into the GST-NRV vector; End of GST read from the printed name GST-GLR3.6; The vector-only control gives GST-RFP-Strep tag II, so the peptide fusion probably carries RFP and Strep tag II too; vector map in Appendix 1A; design as in Curran et al. (2011); also called GLR3.6 peptide fragment; source: E. coli BL21, purified (glutathione resin); not shown: GST, N-terminal, kept
As to B1, the binding result is “binds”.

B2: GST-GLR3.6-S856A (GST-fused peptide fragment) (peptide, UniProt Q84W41 854-865, looked up)
chain: EGAIRRRSSPSA
notes: End of GST read from the printed name; also called GLR3.6-S856A single mutant; source: E. coli BL21, purified (glutathione resin); not shown: GST, N-terminal, kept
Turning to B2, the binding result is “binds”.
